Laboratory results from US20190185530A1 (WESTFAELISCHE WILHELMS UNIVERSITAET MUENSTER, published 2019).
Where a chain is given by its changes, count along the chain named. Names may count otherwise.

T1: human S100A9 protein of Uniprot accession no. P06702 (recombinant, wild type) (human, UniProt P06702 2-114)
T1 construct: Recombinant; also called recS100A9; S100A9 wt
T1 sequence: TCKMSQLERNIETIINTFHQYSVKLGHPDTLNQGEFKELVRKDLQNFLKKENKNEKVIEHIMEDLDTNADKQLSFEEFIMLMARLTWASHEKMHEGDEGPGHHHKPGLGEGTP

B1: wild type human S100A12 protein (recombinant), single chain (other)
chain: TKLEEHLEGIVNIFHQYSVRKGHFDTLSKGELKQLLTKELANTIKNIKDKAVIDEIFQGLDANQDEQVDFQEFISLVAIALKAAHYHTHKE
notes: also called recS100A12 wt; wtS100A12
B2: human S100A8 protein of Uniprot accession no. P05109 (recombinant) (other)
chain: LTELEKALNSIIDVYHKYSLIKGNFHAVYRDDLKKLLETECPQYIRKKGADVWFKELDINTDGAVNFQEFLILVIKMGVAAHKKSHEESHKE
notes: Recombinant; also called recS100A8
B3: recS100A8/S100A9(N69A) mutant heterodimer (other)
chain 1: B2 chain
chain 2: T1 sequence with N68A
notes: Heterodimer tested for association with itself into a tetramer; also called recS100A8/S100A9(N69A) mutant complexes
B4: recS100A8/S100A9 wt heterodimer (other)
chain 1: B2 chain
chain 2: T1 sequence
notes: This heterodimer is the unit that joins with a second one to form the (S100A8/S100A9)2 tetramer when calcium is present; also called recS100A8/S100A9 wt complexes; wt S100A8/S100A9
B5: recS100A8/S100A9(E78A) mutant heterodimer (other)
chain 1: B2 chain
chain 2: T1 sequence with E77A
notes: Heterodimer tested for association with itself into a tetramer
B6: recS100A8/S100A9(N69A+E78A) mutant heterodimer (other)
chain 1: B2 chain
chain 2: T1 sequence with N68A, E77A
notes: as for B5
B7: S100A9 (N69A+E78A), mutant of human S100A9 having a double Asn69→Ala and Glu78→Ala substitution (other)
chain: T1 sequence with N68A, E77A
B8: S100A9 (N69A), mutant of human S100A9 having a single Asn69→Ala substitution (other)
chain: T1 sequence with N68A
B9: S100A9 (E78A), mutant of human S100A9 having a single Glu78→Ala substitution (other)
chain: T1 sequence with E77A

Columns and labels:
[1] = molecular target: the molecule itself; assay: glycerol centrifugation with EGTA, Bradford assay of fractions (homodimer)
Protocol: FIG. 8: Glycerol centrifugation of S100A12 proteins. Wild type (wt) and mutant recS100A12 complexes were loaded on a 15% glycerol solution in the presence of either EGTA or Ca²⁺ or Zn²⁺ or Ca²⁺/Zn²⁺. Buffer conditions were 20 mM HEPES, 140 mM NaCl, pH 7.4. After centrifugation, successive fractions of the gradients were analyzed by the colorimetric assay Bradford. […] Addition of calcium or zinc alone induced no shift for wtS100A12 to higher glycerol fractions. Addition of calcium plus zinc induced a marked shift for wtS100A12 to higher glycerol fractions, whereas for the mutant complex recS100A12(E73A) no shift was observed. FIG. 8A: Protein concentrations of collected fractions determined by Bradford assay. Sample A: S100A12 wild type+2 mM EGTA, sample B S100A12 wild type+5 mM CaCl₂, sample C: S100A12 wild type+1 mM Zn, sample D S100A12 wild type+200 μM Zn, sample E: S100A12 wild type+5 mM CaCl₂+200 μM Zn, sample F: S100A12 wild type+2.5 mM CaCl₂+100 μM Zn FIG. 8B: Summary of collected and analysed fractions of wtS100A12 (see FIG. 8A) in the presence or absence of bivalent cations as indicated in the figure. FIG. 8C Summary of collected and analysed fractions of wtS100A12 and recS100A12E73A mutant in the presence (5 mM CaCl₂+200 μM Zn, 2.5 mM CaCl₂+100 μM Zn) or absence (2 mM EGTA) of bivalent cations as indicated in the figure.

[2] = molecular target: T1, human S100A9 protein of Uniprot …; assay: MALDI-MS, native conditions, without calcium
Description: (§1) FIG. 5: MALDI mass spectra in the absence and presence of calcium under native solvent conditions. (a) MALDI mass spectra of recS100A8/S100A9 wt complexes in the absence (left) and presence (right) of calcium using 2,6-dihydroxy-acetophenone as matrix. The mass spectra between m/z 20,000 and 100,000 together with an inset between m/z 46,000 and 50,000 are shown. T⁺, singly charged; T²⁺, doubly charged; T³⁺, triply charged tetramer. (b) MALDI mass spectra of recS100A8/S100A9(N69A) mutant complexes in the absence (left) and presence (right) of calcium.
S100A8 and S100A9 exist as heterodimers in the absence of calcium, and these heterodimeric complexes associate to (S100A8/S100A9)₂ tetramers upon calcium-binding. […] In the absence of calcium, samples show intense signals of singly charged heterodimers. […] Other prominent signals are detected at molecular masses of around 24 kDa and 16 kDa, representing doubly charged (T2+) or triply charged (T3+) tetramers in accordance with results reported earlier for the native proteins purified from human granulocytes. The number of Ca2+ bound to the tetramers was calculated from the difference between the observed masses of the tetramers and the sum of the calculated theoretical molecular masses of the monomeric components.

[3] = molecular target: the molecule itself; assay: MALDI-MS, native conditions, with calcium (heterodimer to heterodimer)
Description: as §1

[4] = molecular target: the molecule itself; assay: glycerol density gradient centrifugation with calcium, SDS-PAGE of fractions (heterodimer to heterodimer)
Protocol: (§2) FIG. 7: Density gradient centrifugation of S100A8/S100A9 proteins. wt and mutant recS100A8/S100A9 complexes were loaded on a glycerol gradient in the presence of either 1 mM EGTA or 100 μM Ca2+. After centrifugation, successive fractions of the gradients were analyzed by SDS-PAGE. […] Addition of calcium induced a marked shift for recS100A8/S100A9 wt to higher glycerol densities, whereas for the mutant complexes recS100A8/S100A9(N69A) and recS100A8/S100A9(E78A) no shift was observed.

[5] = molecular target: B2; assay: ESI-MS, native conditions
[6] = molecular target: B2; assay: glycerol density gradient centrifugation with EGTA, SDS-PAGE of fractions
Protocol: as §2

B1
binding result [1]: binds

B2
binding result [2]: binds

B3
binding result [3]: no binding

B4
binding result [4]: binds

B5
binding result [3]: no binding

B6
binding result [3]: no binding

B7
binding result [5]: binds

B8
binding result [6]: binds

B9
binding result [6]: binds
